{"source": "paper PMC10099716", "about": "“A De Novo Sequence Variant in Barrier-to-Autointegration Factor Is Associated with Dominant Motor Neuronopathy”", "molecules": {"B1": {"name": "22-nt dsDNA (dsDNA)", "DNA 1": "CTAGGGTTAGGGTTAGGGTTAG", "DNA 2": "CTAACCCTAACCCTAACCCTAG"}}, "key": {"[1]": {"target": "Barrier-to-autointegration factor Gly16Arg variant (BAF Gly16Arg), all cysteines replaced with alanines (human) (UniProt O75531)", "assay": "SEC; gel filtration of purified, refolded BAF on a Superdex 200 pg HiLoad 16/600 column; elution profiles of WT and Gly16Arg compared"}, "[2]": {"target": "Barrier-to-autointegration factor wild type (BAF WT), all cysteines replaced with alanines (human) (UniProt O75531)", "assay": "ITC; VP-ITC; 10-20 µM monomeric BAF (WT or Gly16Arg) in the cell, 100 µM lamin A/C IgFold domain in the syringe; 50 mM Hepes pH 7.4, 150 mM NaCl; 288 K; duplicate, mean values; stoichiometry set to 0.5 (one IgFold domain for each BAF dimer assumed)"}, "[3]": {"target": "Barrier-to-autointegration factor Gly16Arg variant (BAF Gly16Arg), all cysteines replaced with alanines (human) (UniProt O75531)", "assay": "ITC; VP-ITC; 10-20 µM monomeric BAF (WT or Gly16Arg) in the cell, 100 µM lamin A/C IgFold domain in the syringe; 50 mM Hepes pH 7.4, 150 mM NaCl; 288 K; duplicate, mean values; stoichiometry set to 0.5 (one IgFold domain for each BAF dimer assumed)"}, "[4]": {"target": "T1, BAF Gly16Arg (Cys-to-Ala background) (Homo sapiens, UniProt O75531 1-89, G16R;C67A;C77A;C80A;C85A)", "T1 sequence": "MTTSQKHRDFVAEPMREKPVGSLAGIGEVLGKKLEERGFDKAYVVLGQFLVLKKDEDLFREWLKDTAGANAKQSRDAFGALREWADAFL", "assay": "ITC; unphosphorylated; 288 K; mean of 2; ITC: 50 mM Hepes pH 7.4, 150 mM NaCl, 288 K; 10-20 uM BAF monomer in cell, 31-33 uM dsDNA in syringe", "details": "protein: recombinant; tags: His8-TEV, cleaved; chain copies: 2"}, "[5]": {"target": "T2, BAF WT (Cys-to-Ala background) (Homo sapiens, UniProt O75531 1-89, C67A;C77A;C80A;C85A)", "T2 sequence": "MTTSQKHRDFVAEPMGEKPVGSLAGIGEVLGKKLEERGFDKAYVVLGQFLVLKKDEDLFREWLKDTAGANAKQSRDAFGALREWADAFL", "assay": "ITC; unphosphorylated; 288 K; mean of 2; ITC: 50 mM Hepes pH 7.4, 150 mM NaCl, 288 K; 10-20 uM BAF monomer in cell, 31-33 uM dsDNA in syringe", "details": "protein: recombinant; tags: His8-TEV, cleaved; chain copies: 2"}}, "data": [{"molecule": "Barrier-to-autointegration factor Gly16Arg variant (BAF Gly16Arg), all cysteines replaced with alanines (from UniProt O75531 1-89) (natural protein)", "values": [{"measurement": "stoichiometry N", "setting": "[1]", "value": 2}]}, {"molecule": "lamin A/C IgFold domain (human lamin A/C residues 411 to 566) (from UniProt P02545 411-566) (domain or fragment)", "values": [{"measurement": "Kd", "setting": "[2]", "value": 2.7, "unit": "µM"}, {"measurement": "Kd", "setting": "[3]", "value": 9, "unit": "µM"}]}, {"molecule": "B1", "values": [{"measurement": "Kd", "setting": "[4]", "value": "0.0163 ± 0.0057", "unit": "µM"}, {"measurement": "Kd", "setting": "[5]", "value": "0.117 ± 0.058", "unit": "µM"}]}]}
